Laboratory results reported in patent US20250163116A1, “NEW METHOD TO TREAT INFECTIOUS DISEASES” (INSERM (INSTITUT NATIONAL DE LA SANTÉ ET DE LA RECHERCHE …, priority 2022, published 2025).

B1: ANGPTL4: Recombinant human ANGPTL4 (Angiopoietin-like 4), full length, SEQ ID NO: 1, purchased from R&D Systems (protein, listed as Homo sapiens)
chain: MSGAPTAGAALMLCAATAVLLSAQGGPVQSKSPRFASWDEMNVLAHGLLQLGQGLREHAERTRSQLSALERRLSACGSACQGTEGSTDLPLAPESRVDPEVLHSLQTQLKAQNSRIQQLFHKVAQQQRHLEKQHLRIQHLQSQFGLLDHKHLDHEVAKPARRKRLPEMAQPVDPAHNVSRLHRLPRDCQELFQVGERQSGLFEIQPQGSPPFLVNCKMTSDGGWTVIQRRHDGSVDFNRPWEAYKAGFGDPHGEFWLGLEKVHSITGDRNSRLAVQLRDWDGNAELLQFSVHLGGEDTAYSLQLTAPVAGQLGATTVPPSGLSVPFSTWDQDHDLRRDKNCAKSLSGGWWFGTCSHSNLNGQYFRSIPQQRQKLKKGIFWKTWRGRYYPLQATTMLIQPMAAEAAS
B2: nANGPTL4: N-terminal fragment of ANGPTL4, aa 26-164, SEQ ID NO: 24, purchased from R&D Systems (protein)
chain: GPVQSKSPRFASWDEMNVLAHGLLQLGQGLREHAERTRSQLSALERRLSACGSACQGTEGSTDLPLAPESRVDPEVLHSLQTQLKAQNSRIQQLFHKVAQQQRHLEKQHLRIQHLQSQFGLLDHKHLDHEVAKPARRK
modifications: nANGPTL4
B3: cANGPTL4: C-terminal fragment of ANGPTL4, aa 164-406, fibrinogen-like domain, purchased from R&D Systems (protein, listed as Homo sapiens)
chain: RLPEMAQPVDPAHNVSRLHRLPRDCQELFQVGERQSGLFEIQPQGSPPFLVNCKMTSDGGWTVIQRRHDGSVDFNRPWEAYKAGFGDPHGEFWLGLEKVHSITGDRNSRLAVQLRDWDGNAELLQFSVHLGGEDTAYSLQLTAPVAGQLGATTVPPSGLSVPFSTWDQDHDLRRDKNCAKSLSGGWWFGTCSHSNLNGQYFRSIPQQRQKLKKGIFWKTWRGRYYPLQATTMLIQPMAAEAAS

Test system: SCID mice grafted with human skin infected with Nm 2C4.3
Assay: Vascular lesions in SCID mice grafted with human skin infected with N. meningitidis (4 h)
Format: in vivo
Details: for vessel thrombosis in skin grafts / integrity of the endothelial cell junctions (VE-cadherin staining) / vascular colonization of human dermal vessels at 4 hours post-infection: 1 μg/mouse i.v.; for vessel thrombosis in skin grafts: 4 h post-infection
Description: FIG. 7: ANGPTL4 reduces signs of thrombosis, vascular injury and inflammation. A-D, SCID mice grafted with human skins were infected intravenously with Nm 2C4.3 wild-type strain (5×10^6 bacteria) or left uninfected. A period of 30 min or 2 h after bacterial challenge, mice received 1 μg of recombinant human ANGPTL4, nANGPTL4 or cANGPTL4 intravenously or the vehicle as a control. Mice were killed at 4 h post-challenge. This experiment was performed twice with n=3 or 4 mice per group, using skin from two different donors. A, A schematic representation of the protocols used in vivo. B, Control bacteraemia 4 h post-infection (mean±s.e.m.). C, Bacterial colonization within the skin grafts as assessed by immunofluorescence analysis was quantified using ImageJ software as the ratio between bacterial surface colonization and the lumen surface of the vessels. A total of 30-50 vessels per mouse were analysed. Error bars show mean±s.e.m. D, Thrombus formation within the skin grafts was assessed by immunofluorescence analysis and quantified using ImageJ as the ratio between thrombus surfaces and the lumen surface of the vessels. A total of 30-50 vessels per mouse were analysed. Error bars show mean±s.e.m.; *** P<0.0001; ns P=0.0541 two-tailed Student's t-test.
Six-week-old CB17/Icr-Prkdcscid female mice were obtained from Janvier Labs. Human skin tissues were obtained from adult patients undergoing plastic surgery in the Service de Chirurgie Plastique et Reconstructive of the Groupe Hospitalier Saint-Joseph. […] Experimental procedures were performed as previously described in accordance with the guidelines of the Institut National de la Santé et de la Recherche Médicale and conformed to the European ethical legislation (Directive 2010/63/EU). The experimental protocol was approved by the Animal Experimentation Ethics Committee of the Université Paris Descartes (consent forms CEEA34.O.J.L.039.12 and 2018012515596498). […]. A skin flap was created and a full thickness human skin graft was placed onto the wound bed. The transplants were held in place with 6-0 non-absorbable monofilament suture materials, and the flap was then sutured above the transplant. Grafted mice were infected 4-6 weeks after human skin transplantation. N. meningitidis was grown overnight at 37° C. on GCB agar plates prepared without iron and supplemented with 15 μM deferoxamine (Desferal, Novartis). Bacterial colonies were harvested and cultured in RPMI media with 1% BSA medium and 0.06 μM deferoxamine with gentle agitation to reach the exponential phase of growth. Bacteria were then resuspended in physiological saline solution. Mice were infected intravenously with 200 μl (5×10^6 bacteria) of this bacterial suspension. A 10 mg dose of human holotransferrin (R&D Systems) was administered intraperitoneally just before infection. Mice were killed at 4 h after infection. Human skin grafts were carefully collected using a sterile cutter. The tissue was washed in PBS and fixed overnight at 4° C. in 4% paraformaldehyde in phosphate buffer. After washing in phosphate buffer, the specimens were embedded in OCT medium and then frozen at −80° C. Sections of the dermis (7 μm thick) were immobilized on Superfrost Plus microscope slides and subjected to immunofluorescence analysis. Sections were incubated with the primary antibodies for 1 h in PBS/3% BSA then DAPI was added to Alexa-conjugated secondary antibodies for 1 h. After additional washing, coverslips were mounted in glycergel (Dako) and were further analysed using a slide scanner (Lamina, Perkin Elmer). Analysis of the images was performed using ImageJ software (NIH). […]

Molecule | vessel thrombosis in skin grafts | integrity of the endothelial cell junctions (VE-cadherin staining) (data not shown) | effect on inflammatory markers upon administration at 2 h (administration 2 h post-infection, data not shown) | reduction of serum levels of TNF-α, IL-6, IL-8, soluble E-selectin, ICAM-1, VCAM-1, Angiopoetin-2, Thrombomodulin (mice sera, early administration (30 min), data not shown) | vascular colonization of human dermal vessels at 4 hours post-infection | production of proinflammatory factors and biomarkers of vascular inflammation (1 μg/mouse, data not shown)
B1 | largely reduced vessel thrombosis | preserved the integrity of the endothelial cell junctions | no effect | 60-80% | – | –
B2 | reduced vessel thrombosis | preserved the integrity of the endothelial cell junctions | – | – | no effect on vascular colonization | –
B3 | reduced vessel thrombosis | – | – | – | no effect on vascular colonization | most efficient at preventing the production of proinflammatory factors and biomarkers of vascular inflammation
